Measurements published in patent US12522842B2, “Glutamine synthetase mutant having glufosinate resistance and application thereof and cultivation method therefor” (GEVOTO LLC, priority 2019, dated 2026).
Changes are numbered by the printed parent chain. Numbers in names are those of the source.

B1: TaGR (protein)
chain: MALLTDLLNLDLTDSTEKIIAEYIWIGGSGMDLRSKARTLPGPVTDPSKLPKWNYDGSGTGQAPGEDSEVILYPQAIFKDPFRKGNNILVMCDCYTPAGVPIPTNKRYNAAKIFSNPDVAKEEPWYGIEQEYTLLQKDINWPLGWPVGGFPGPQGPYYCSIGADKSFGRDIVDSHYKACLFAGVNISGINGEVMPGQWEFQVGPTVGISAGDQVWVARYLLERITEIAGVVVTFDPKPIPGDWNGAGAHTNYSTESMRKDGGFKVIVDAVEKLKLKHKEHIAAYGEGNERRLTGKRETADINTFSWGVANRGASVRVGRETEQNGKGYFEDRRPASNMDPYVVTSMIAETTILWKP
modifications: TaGR
B2: GmGS_WT: wild-type soybean glutamine synthetase, SEQ ID NO. 3, control (protein)
chain: MSLLSDLINLNLSDTTEKVIAEYIWIGGSGMDLRSKARTLPGPVSDPSKLPKWNYDGSSTGQAPGEDSEVIIYPQAIFRDPFRRGNNILVICDTYTPAGEPIPTNKRHDAAKVFSHPDVVAEETWYGIEQEYTLLQKDIQWPLGWPVGGFPGPQGPYYCGVGADKAFGRDIVDAHYKACLYAGINISGINGEVMPGQWEFQVGPSVGISAGDEVWAARYILERITEIAGVVVSFDPKPIQGDWNGAGAHTNYSTKSMRNDGGYEVIKTAIEKLGKRHKEHIAAYGEGNERRLTGRHETADINTFLWGVANRGASVRVGRDTEKAGKGYFEDRRPASNMDPYVVTSMIADTTILWKP
modifications: Glycine max
notes: 3, control
B3: GmGR (protein)
chain: B2 chain with S59G, H296R
modifications: GmGR
B4: OsGS_WT: wild-type rice glutamine synthetase, SEQ ID NO. 1, negative control (protein, listed as Oryza sativa)
chain: MASLTDLVNLNLSDTTEKIIAEYIWIGGSGMDLRSKARTLSGPVTDPSKLPKWNYDGSSTGQAPGEDSEVILYPQAIFKDPFRKGNNILVMCDCYTPAGEPIPTNKRHNAAKIFSSPEVASEEPWYGIEQEYTLLQKDINWPLGWPVGGFPGPQGPYYCGIGADKSFGRDIVDSHYKACLYAGINISGINGEVMPGQWEFQVGPSVGISAGDQVWVARYILERITEIAGVVVSFDPKPIPGDWNGAGAHTNYSTKSMRNDGGYEIIKSAIEKLKLRHKEHISAYGEGNERRLTGRHETADINTFSWGVANRGASVRVGRETEQNGKGYFEDRRPASNMDPYIVTSMIAETTIIWKP
B5: OsI (protein)
chain: B4 chain with S59I
modifications: OsI
B6: OsH: rice GS mutant, S59H versus SEQ ID NO. 1 (SEQ ID NO. 13) (protein)
chain: B4 chain with S59H
modifications: OsH
B7: OsGR: rice GS mutant, S59G and H296R in SEQ ID NO. 1 (SEQ ID NO. 22) (protein)
chain: B4 chain with S59G, H296R
modifications: OsGR
B8: OsY: rice GS mutant, S59Y versus SEQ ID NO. 1 (SEQ ID NO. 19) (protein)
chain: B4 chain with S59Y
modifications: OsY

How the values were obtained:
[1] = tested on: glutamine synthetase-deficient Escherichia coli; assay: Growth of glutamine synthetase-deficient E. coli transformed with GS mutants in M9 medium containing glufosinate; type: cell-based; conditions: for growth of transformed GS-deficient E. coli (normal GS enzymatic activity): medium containing 0 mM glufosinate
From the text: According to the sequences of the nucleic acid molecules provided in Example 4, the nucleic acid sequences encoding rice GS mutants OsA, OsC, OsD, OsE, OsF, OsG, OsH, OsI, OsK, OsP, OST, OsV, and OsY were synthesized using chemical synthesis method. Restriction digestion sites (Pac1 and Sbf1) were introduced at both ends thereof, and after restriction digestion, they were linked under the action of ligase to an expression vector (such as pADV7 vector, whose structure is shown in FIG. 4) that was subjected to the same restriction digestion treatment. Then, glutamine synthetase-deficient Escherichia coli was transformed with the resultant. After verification, positive clones were picked up and inoculated in M9 medium containing different concentrations of glufosinate to grow, and the growth status of defective Escherichia coli was observed.
With wild-type rice GS (its amino acid sequence shown in SEQ ID NO. 1 and its encoding gene shown in SEQ ID NO. 4) as a negative control, the glufosinate resistance for the GS mutant OsA (S59A, wherein the amino acid S at site 59 of the rice GS is mutated into A), OsC (S59C), OsD (S59D), OsE (S59E), OsF (S59F), OsG (S59G), OsH (S59H), OsI (S591), OsK (S59K), OsP (S59P), OsT (S59T), OsV (S59V), OsY (S59Y) was detected.
With reference to the detection method of Experimental Example 1, glufosinate resistance of the rice GS mutant OsGR (S59G and H296R, the amino acid S at site 59 of rice GS is mutated into G and the amino acid H at site 296 is mutated into R), the wheat GS mutant TaGR (S59G and H296R, the amino acid S at site 59 of wheat GS is mutated into G and the amino acid H at site 296 is mutated into R), the soybean GS mutant GmGR (S59G and H296R, the amino acid S at site 59 of soybean GS is mutated into G and the amino acid H at site 296 is mutated into R) provided in Example 2 was verified.
With reference to Experimental example 1, the glufosinate resistance of rice GS mutants OA, OD, OE, OG, OI, OK, OM, OP, OQ, OR, OS, OT, and OV provided in Example 3 was detected according to the following method.
With wild-type rice GS as a negative control, the glufosinate resistance of GS mutants OA (H296A, amino acid H at site 296 of rice GS is mutated into A), OD (H296D), OE (H296E), OG (H296G), OI (H2961), OK (H296K), OM (H296M), OP (H296P), OQ (H296Q), OR (H296R), OS (H296S), OT (H296T), OV (H296V) was detected.

[2] = target: rice GS (glutamine synthetase); assay: Enzymatic activity of purified rice GS: kinetic parameters and glufosinate IC50; type: biochemical, rice (Oryza sativa); conditions: inhibition of rice GS by glufosinate
From the text: OsC, OsF, OsG, OsH, OsP, and OsY provided in Example 1, OR provided in Example 3, and rice GS mutant OsGR and wheat GS mutant TaGR provided in Example 2 were detected for their enzymatic kinetic parameter, and enzymatic kinetic parameter in the presence of glufosinate, using wild-type rice GS OsGS_WT and wild-type wheat GS TaGS_WT as controls according to the following method.
The nucleic acid sequences encoding the above mutants were each cloned into a prokaryotic expression vector pET32a, and the clone was verified by sequencing.
The mutant enzyme protein was purified with 6His by a standard method, and its concentration was determined with a protein concentration assay kit with Bradford method. The protein was stored in a protein storage solution.
ELIASA (Detielab, HBS-1096A), glufosinate, substrate sodium L-glutamate (CAS: 6106-04-3).
(1) The composition of a reaction solution for determination of enzymatic activity of glutamine synthetase were as follows: 100 mM Tris-HCl (pH 7.5), 10 mM ATP, 20 mM sodium L-glutamate, 30 mM hydroxylamine, 20 mM MgCl2. 100 μl of the reaction solution after mixed thoroughly was preheated at 35° C. for 5 min, and 10 μl of mutant protein solution (protein concentration of 200 μg/ml) was added to start the reaction. After reaction at 35° C. for 30 min, 110 μl of color developing solution (55 g/L FeCl3·6H2O, 20 g/L trichloroacetic acid, 2.1% concentrated hydrochloric acid) was added to terminate the reaction. The absorbance at 540 nm was measured.

[3] = media containing 2 mM, 5 mM, 10 mM, and 20 mM glufosinate
[4] = media containing 10 mM, 20 mM and 300 mM glufosinate
[5] = medium containing 10 mM glufosinate
[6] = medium with 50 mM/100 mM glufosinate

Molecule	growth of transformed E. coli (glufosinate resistance) [1, 3]	growth of transformed GS-deficient E. coli (normal GS enzymatic activity) [1]	IC50 ([2]; read-out: glufosinate resistance parameter IC50)	growth of transformed E. coli (glufosinate resistance) [1, 4]	growth of transformed E. coli (glufosinate resistance) [1, 5]	growth of transformed E. coli (glufosinate resistance) [1, 6]	glufosinate resistance parameter IC50 [2]	growth of transformed E. coli (glufosinate resistance) ([1]; medium containing 300 mM glufosinate)
B1	significantly grew	could normally grow	–	–	–	–	–	–
B2	could hardly grow	could normally grow	–	–	–	–	–	–
B3	significantly grew	could normally grow	–	–	–	–	–	–
B4	–	could normally grow	700 µM	could hardly grow	could hardly grow	–	–	–
B5	–	could normally grow	–	–	significantly superior to that of the negative control	significantly grew	–	–
B6	–	could normally grow	–	–	significantly superior to that of the negative control	significantly grew	much higher than those of the wild-type controls	–
B7	–	could normally grow	–	grew significantly	–	–	much higher than those of the wild-type controls	grew significantly
B8	–	could normally grow	–	–	significantly superior to that of the negative control	significantly grew	much higher than those of the wild-type controls	–
